{"source": "paper PMC3898841", "about": "“Identification of a Major Determinant for Serine-Threonine Kinase Phosphoacceptor Specificity” (Molecular Cell, 2014)", "binders": {"B1": {"name": "PAKtide-S (peptide)", "peptide": "RRRRSWY", "notes": "consensus peptide substrate of PAK4, phosphoacceptor Ser (P0); also called PAK4 consensus peptide substrate with Ser phosphoacceptor (short form used for crystals); source: synthetic peptide"}, "B2": {"name": "PAKtide-S(L) (peptide)", "peptide": "RRRRRSWYFDG", "notes": "longer consensus peptide substrate of PAK4, phosphoacceptor Ser (P0); also called longer version of the consensus peptide; source: synthetic peptide"}}, "key": {"[1]": {"molecular_target": "T1, WT PAK4 catalytic domain (human, UniProt O96013 286-591, phosphoserine at 474 (activation loop, as seen in the structures))", "T1 construct": "residues built in the models: 300-589 (4JDH, 4JDI) and 291-591 (2Q0N); The construct of PDB 2Q0N may have other limits than that of 4JDH/4JDI", "T1 sequence (O96013 286-591)": "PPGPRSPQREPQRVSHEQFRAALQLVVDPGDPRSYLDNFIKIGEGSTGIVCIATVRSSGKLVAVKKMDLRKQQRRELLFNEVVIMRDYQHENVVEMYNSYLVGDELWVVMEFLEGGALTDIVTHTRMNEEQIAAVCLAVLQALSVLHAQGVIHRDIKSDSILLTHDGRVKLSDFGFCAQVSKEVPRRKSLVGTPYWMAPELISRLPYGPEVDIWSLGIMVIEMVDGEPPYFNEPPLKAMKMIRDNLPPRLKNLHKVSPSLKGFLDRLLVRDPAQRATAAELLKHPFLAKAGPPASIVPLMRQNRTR"}, "[2]": {"molecular_target": "T2, PAK4 F461V catalytic domain (human, UniProt O96013 286-591, F461V, phosphoserine at 474 (activation loop, as seen in the structures))", "T2 construct": "residues built in the models: 300-589; also called F461V mutant PAK4", "T2 sequence (O96013 286-591 F461V)": "as the sequence (O96013 286-591) above, with F176V counted along it"}, "[3]": {"molecular_target": "WT MST4 (human) (UniProt Q9P289)", "sequence (Q9P289 whole entry)": "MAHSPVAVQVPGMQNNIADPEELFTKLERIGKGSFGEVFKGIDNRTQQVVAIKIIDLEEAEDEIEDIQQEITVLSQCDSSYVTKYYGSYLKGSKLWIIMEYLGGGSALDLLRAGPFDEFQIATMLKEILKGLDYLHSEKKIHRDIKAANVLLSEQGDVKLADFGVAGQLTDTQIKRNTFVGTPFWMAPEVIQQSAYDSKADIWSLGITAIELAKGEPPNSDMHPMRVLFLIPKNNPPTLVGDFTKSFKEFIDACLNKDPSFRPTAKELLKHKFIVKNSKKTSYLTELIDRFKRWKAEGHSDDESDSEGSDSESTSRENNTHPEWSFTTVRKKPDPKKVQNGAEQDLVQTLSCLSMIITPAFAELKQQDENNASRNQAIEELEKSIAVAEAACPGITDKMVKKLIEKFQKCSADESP"}, "[4]": {"molecular_target": "MST4 V165F (human) (UniProt Q9P289)", "sequence (Q9P289 whole entry V165F)": "as the sequence (Q9P289 whole entry) above, with V165F counted along it"}, "[5]": {"molecular_target": "T1, WT PAK4 catalytic domain", "test": "crystal structure; WT PAK4 crystals grown by hanging drop vapor diffusion against 0.1 M Tris-HCl (pH 7.5), 1.5-2.0 M NaOAc at room temperature and soaked with peptides", "details": "both partners purified"}, "[6]": {"molecular_target": "T2, PAK4 F461V catalytic domain", "test": "crystal structure; PAK4 F461V cocrystals with peptide, hanging drop vapor diffusion, 0.1 M Tris-HCl (pH 7.5), 1.5-2.0 M NaOAc at room temperature", "details": "both partners purified"}, "[7]": {"molecular_target": "T1, WT PAK4 catalytic domain", "test": "crystal structure; cocrystals of PAK4 with PAKtide-S(L), 1.7 M ammonium sulfate, 15% PEG400, 0.1 M Tris-HCl (pH 8.0)", "details": "both partners purified"}}, "data": [{"binder": "GGRRRRRSWYFGGGK", "note": "[PAK4 substrate peptide … (X = Ser)]", "values": [{"measurement": "Km for phosphorylation of the peptide (radiolabel filter binding kinase assay)", "setting": "[1]", "result": 280, "unit": "µM"}, {"measurement": "Km for phosphorylation of the peptide (radiolabel filter binding kinase assay)", "setting": "[2]", "result": 129, "unit": "µM"}]}, {"binder": "NKGYNSLRRKK", "note": "[MST4 substrate peptide … (X = Ser)]", "values": [{"measurement": "Km for phosphorylation of the peptide (radiolabel filter binding kinase assay)", "setting": "[3]", "result": 21.7, "unit": "µM"}, {"measurement": "Km for phosphorylation of the peptide (radiolabel filter binding kinase assay)", "setting": "[4]", "result": 360, "unit": "µM"}]}, {"binder": "NKGYNTLRRKK", "note": "[MST4 substrate peptide … (X = Thr)]", "values": [{"measurement": "Km for phosphorylation of the peptide (radiolabel filter binding kinase assay)", "setting": "[3]", "result": 14, "unit": "µM"}, {"measurement": "Km for phosphorylation of the peptide (radiolabel filter binding kinase assay)", "setting": "[4]", "result": 390, "unit": "µM"}]}, {"binder": "B1", "values": [{"measurement": "binding result", "setting": "[5]", "result": "binds"}, {"measurement": "binding result", "setting": "[6]", "result": "binds"}]}, {"binder": "B2", "values": [{"measurement": "binding result", "setting": "[7]", "result": "binds"}]}]}
